IC50, inhibition of C5a production in human serum (competition radioimmunoassay for C5a desArg), IC50, inhibition of alternative pathway complement-mediated lysis of unsensitized guinea pig RBC by human serum and IC50, inhibition of classical pathway complement-mediated lysis of IgM-sensitized sheep RBC by human serum data for four substances are collected here from patent publication US5851528.

Assay [1] has as its target C5 convertase (formed in human serum) (human).
The target of assay [2] is C3/C5 convertases.
The target of assay [3] is C3/C5 convertases. The source holds these as a separate data set.

In assay [1], “CAB-2 (complement activation blocker-2), recombinant chimeric protein encoded by the MCP-DAF expression vector” yielded an IC50, inhibition of C5a production in human serum (competition radioimmunoassay for C5a desArg) of 300 nM. Also, the IC50, inhibition of alternative pathway complement-mediated lysis of unsensitized guinea pig RBC by human serum with C3/C5 convertases [2] came to 100 nM. Moreover, in the assay with C3/C5 convertases [3], the IC50, inhibition of classical pathway complement-mediated lysis of IgM-sensitized sheep RBC by human serum is 30 nM.

Consider “mixture of sMCP + sDAF added together on an equal molar basis (pool or library)”, for which the IC50, inhibition of classical pathway complement-mediated lysis of IgM-sensitized sheep RBC by human serum in the assay with C3/C5 convertases [3] is 200 nM.

With “soluble DAF (sDAF), soluble decay accelerating factor (from UniProt P08174)”, the IC50, inhibition of classical pathway complement-mediated lysis of IgM-sensitized sheep RBC by human serum with C3/C5 convertases [3] was 100 nM.

For the substance “soluble MCP (sMCP), soluble membrane cofactor protein recombinant protein (from UniProt P15529-3)”, in assay [1], the IC50, inhibition of C5a production in human serum (competition radioimmunoassay for C5a desArg) was found to be 5000 nM. Besides, the IC50, inhibition of alternative pathway complement-mediated lysis of unsensitized guinea pig RBC by human serum with C3/C5 convertases [2] turned out to be 350 nM. Besides, the IC50, inhibition of classical pathway complement-mediated lysis of IgM-sensitized sheep RBC by human serum with C3/C5 convertases [3] was determined as 7000 nM.
